Data published in patent US20110091994A1, “Methods for Screening Compounds for Treating and/or Preventing an Hepatitis C Virus Infection” (priority 2008, published 2011).
Read-outs that look alike come from different tables or passages of the source.

B1: MORC4 (protein, UniProt Q8TE76 1-937, looked up)
MORC family CW-type zinc …: MLLYRGAPAGPGAPGCGLARPGGGPQAFGIRLSTMSPRYLQSNSSSHTRPFSAIAELLDNAVDPDVSARTVFIDVEEVKNKSCLTFTDDGCGMTPHKLHRMLSFGFTDKVIKKSQCPIGVFGNGFKSGSMRLGKDALVFTKNGGTLTVGLLSQTYLECVQAQAVIVPIVPFNQQNKKMIITEDSLPSLEAILNYSIFNRENDLLAQFDAIPGKKGTRVLIWNIRRNKNGKSELDFDTDQYDILVSDFDTEEKMTGGVTSELPETEYSLRAFCGILYMKPRMKIFLRQKKVTTQMIAKSLANVEYDTYKPTFTNKQVRITFGFSCKNSNQFGIMMYHNNRLIKSFEKVGCQVKPTRGEGVGVIGVIECNFLKPAYNKQDFEYTKEYRLTINALAQKLNAYWKEKTSQDNFETSTVARPIPKVPDQTWVQCDECLKWRKLPGKIDPSMLPARWFCYYNSHPKYRRCSVPEEQELTDEDLCLSKAKKQEQTVEEKKKMPMENENHQVFSNPPKILTVQEMAGLNNKTIGYEGIHSPSVLPSGGEESRSPSLQLKPLDSSVLQFSSKYKWILGEEPVEKRRRLQNEMTTPSLDYSMPAPYRRVEAPVAYPEGENSHDKSSSERSTPPYLFPEYPEASKNTGQNREVSILYPGAKDQRQGSLLPEELEDQMPRLVAEESNRGSTTINKEEVNKGPFVAVVGVAKGVRDSGAPIQLIPFNREELAERRKAVESWNPVPYSVASAAIPAAAIGEKARGYEESEGHNTPKLKNQRELEELKRTTEKLERVLAERNLFQQKVEELEQERNHWQSEFKKVQHELVIYSTQEAEGLYWSKKHMGYRQAEFQILKAELERTKEEKQELKEKLKETETHLEMLQKAQVSYRTPEGDDLERALAKLTRLRIHVSYLLTSVLPHLELREIGYDSEQVDGILYTVLEANHILD
B2: NEFL (protein, UniProt P07196 2-543, looked up)
Neurofilament light …: SSFSYEPYYSTSYKRRYVETPRVHISSVRSGYSTARSAYSSYSAPVSSSLSVRRSYSSSSGSLMPSLENLDLSQVAAISNDLKSIRTQEKAQLQDLNDRFASFIERVHELEQQNKVLEAELLVLRQKHSEPSRFRALYEQEIRDLRLAAEDATNEKQALQGEREGLEETLRNLQARYEEEVLSREDAEGRLMEARKGADEAALARAELEKRIDSLMDEISFLKKVHEEEIAELQAQIQYAQISVEMDVTKPDLSAALKDIRAQYEKLAAKNMQNAEEWFKSRFTVLTESAAKNTDAVRAAKDEVSESRRLLKAKTLEIEACRGMNEALEKQLQELEDKQNADISAMQDTINKLENELRTTKSEMARYLKEYQDLLNVKMALDIEIAAYRKLLEGEETRLSFTSVGSITSGYSQSSQVFGRSAYGGLQTSSYLMSTRSFPSYYTSHVQEEQIEVEETIEAAKAEEAKDEPPSEGEAEEEEKDKEEAEEEEAAEEEEAAKEESEEAKEEEEGGEGEEGEETKEAEEEEKKVEGAGEEQAAKKKD
B3: NELL1 (protein, UniProt Q92832 22-810, looked up)
Protein kinase C-binding …: FGMDPDLQMDIVTELDLVNTTLGVAQVSGMHNASKAFLFQDIEREIHAAPHVSEKLIQLFRNKSEFTILATVQQKPSTSGVILSIRELEHSYFELESSGLRDEIRYHYIHNGKPRTEALPYRMADGQWHKVALSVSASHLLLHVDCNRIYERVIDPPDTNLPPGINLWLGQRNQKHGLFKGIIQDGKIIFMPNGYITQCPNLNHTCPTCSDFLSLVQGIMDLQELLAKMTAKLNYAETRLSQLENCHCEKTCQVSGLLYRDQDSWVDGDHCRNCTCKSGAVECRRMSCPPLNCSPDSLPVHIAGQCCKVCRPKCIYGGKVLAEGQRILTKSCRECRGGVLVKITEMCPPLNCSEKDHILPENQCCRVCRGHNFCAEGPKCGENSECKNWNTKATCECKSGYISVQGDSAYCEDIDECAAKMHYCHANTVCVNLPGLYRCDCVPGYIRVDDFSCTEHDECGSGQHNCDENAICTNTVQGHSCTCKPGYVGNGTICRAFCEEGCRYGGTCVAPNKCVCPSGFTGSHCEKDIDECSEGIIECHNHSRCVNLPGWYHCECRSGFHDDGTYSLSGESCIDIDECALRTHTCWNDSACINLAGGFDCLCPSGPSCSGDCPHEGGLKHNGQVWTLKEDRCSVCSCKDGKIFCRRTACDCQNPSADLFCCPECDTRVTSQCLDQNGHKLYRSGDNWTHSCQQCRCLEGEVDCWPLTCPNLSCEYTAILEGECCPRCVSDPCLADNITYDIRKTCLDSYGVSRLSGSVWTMAGSPCTTCKCKNGRVCCSVDFECLQNN
B4: NEFM (protein, UniProt P07197 2-916, looked up)
Neurofilament medium …: SYTLDSLGNPSAYRRVTETRSSFSRVSGSPSSGFRSQSWSRGSPSTVSSSYKRSMLAPRLAYSSAMLSSAESSLDFSQSSSLLNGGSGPGGDYKLSRSNEKEQLQGLNDRFAGYIEKVHYLEQQNKEIEAEIQALRQKQASHAQLGDAYDQEIRELRATLEMVNHEKAQVQLDSDHLEEDIHRLKERFEEEARLRDDTEAAIRALRKDIEEASLVKVELDKKVQSLQDEVAFLRSNHEEEVADLLAQIQASHITVERKDYLKTDISTALKEIRSQLESHSDQNMHQAEEWFKCRYAKLTEAAEQNKEAIRSAKEEIAEYRRQLQSKSIELESVRGTKESLERQLSDIEERHNHDLSSYQDTIQQLENELRGTKWEMARHLREYQDLLNVKMALDIEIAAYRKLLEGEETRFSTFAGSITGPLYTHRPPITISSKIQKPKVEAPKLKVQHKFVEEIIEETKVEDEKSEMEEALTAITEELAVSMKEEKKEAAEEKEEEPEAEEEEVAAKKSPVKATAPEVKEEEGEKEEEEGQEEEEEEDEGAKSDQAEEGGSEKEGSSEKEEGEQEEGETEAEAEGEEAEAKEEKKVEEKSEEVATKEELVADAKVEKPEKAKSPVPKSPVEEKGKSPVPKSPVEEKGKSPVPKSPVEEKGKSPVPKSPVEEKGKSPVSKSPVEEKAKSPVPKSPVEEAKSKAEVGKGEQKEEEEKEVKEAPKEEKVEKKEEKPKDVPEKKKAESPVKEEAVAEVVTITKSVKVHLEKETKEEGKPLQQEKEKEKAGGEGGSEEEGSDKGAKGSRKEDIAVNGEVEGKEEVEQETKEKGSGREEEKGVVTNGLDLSPADEKKGGDKSEEKVVVTKTVEKITSEGGDGATKYITKSVTVTQKVEEHEETFEEKLVSTKKVEKVTSHAIVKEVTQSD
B5: NID1 (protein, UniProt P14543 29-1247, looked up)
Nidogen-1: LSRQELFPFGPGQGDLELEDGDDFVSPALELSGALRFYDRSDIDAVYVTTNGIIATSEPPAKESHPGLFPPTFGAVAPFLADLDTTDGLGKVYYREDLSPSITQRAAECVHRGFPEISFQPSSAVVVTWESVAPYQGPSRDPDQKGKRNTFQAVLASSDSSSYAIFLYPEDGLQFHTTFSKKENNQVPAVVAFSQGSVGFLWKSNGAYNIFANDRESVENLAKSSNSGQQGVWVFEIGSPATTNGVVPADVILGTEDGAEYDDEDEDYDLATTRLGLEDVGTTPFSYKALRRGGADTYSVPSVLSPRRAATERPLGPPTERTRSFQLAVETFHQQHPQVIDVDEVEETGVVFSYNTDSRQTCANNRHQCSVHAECRDYATGFCCSCVAGYTGNGRQCVAEGSPQRVNGKVKGRIFVGSSQVPIVFENTDLHSYVVMNHGRSYTAISTIPETVGYSLLPLAPVGGIIGWMFAVEQDGFKNGFSITGGEFTRQAEVTFVGHPGNLVIKQRFSGIDEHGHLTIDTELEGRVPQIPFGSSVHIEPYTELYHYSTSVITSSSTREYTVTEPERDGASPSRIYTYQWRQTITFQECVHDDSRPALPSTQQLSVDSVFVLYNQEEKILRYALSNSIGPVREGSPDALQNPCYIGTHGCDTNAACRPGPRTQFTCECSIGFRGDGRTCYDIDECSEQPSVCGSHTICNNHPGTFRCECVEGYQFSDEGTCVAVVDQRPINYCETGLHNCDIPQRAQCIYTGGSSYTCSCLPGFSGDGQACQDVDECQPSRCHPDAFCYNTPGSFTCQCKPGYQGDGFRCVPGEVEKTRCQHEREHILGAAGATDPQRPIPPGLFVPECDAHGHYAPTQCHGSTGYCWCVDRDGREVEGTRTRPGMTPPCLSTVAPPIHQGPAVPTAVIPLPPGTHLLFAQTGKIERLPLEGNTMRKTEAKAFLHVPAKVIIGLAFDCVDKMVYWTDITEPSIGRASLHGGEPTTIIRQDLGSPEGIAVDHLGRNIFWTDSNLDRIEVAKLDGTQRRVLFETDLVNPRGIVTDSVRGNLYWTDWNRDNPKIETSYMDGTNRRILVQDDLGLPNGLTFDAFSSQLCWVDAGTNRAECLNPSQPSRRKALEGLQYPFAVTSYGKNLYFTDWKMNSVVALDLAISKETDAFQPHKQTRLYGITTALSQCPQGHNYCSVNNGGCTHLCLATPGSRTCRCPDNTLGVDCIEQK
B6: NAP1L1 (protein, UniProt P55209 2-388, looked up)
Nucleosome assembly protein …: ADIDNKEQSELDQDLDDVEEVEEEETGEETKLKARQLTVQMMQNPQILAALQERLDGLVETPTGYIESLPRVVKRRVNALKNLQVKCAQIEAKFYEEVHDLERKYAVLYQPLFDKRFEIINAIYEPTEEECEWKPDEEDEISEELKEKAKIEDEKKDEEKEDPKGIPEFWLTVFKNVDLLSDMVQEHDEPILKHLKDIKVKFSDAGQPMSFVLEFHFEPNEYFTNEVLTKTYRMRSEPDDSDPFSFDGPEIMGCTGCQIDWKKGKNVTLKTIKKKQKHKGRGTVRTVTKTVSNDSFFNFFAPPEVPESGDLDDDAEAILAADFEIGHFLRERIIPRSVLYFTGEAIEDDDDDYDEEGEEADEEGEEEGDEENDPDYDPKKDQNPAEC

Assays:
[1] = tested on: HCV ORFs (Gal4-DB fusions); assay type: binding, HCV genotype 1b, isolate con1; details: human protein listed by gene symbol; the value names the HCV protein it interacts with
[2] = target: T1, HCV ORFs (Gal4-DB fusions) (Hepatitis C virus genotype 1b, UniProt Q9WMX2); assay type: binding, HCV genotype 1b, isolate con1; details: human protein as prey
T1 construct: expressed in transfected cells; host or cells: Saccharomyces cerevisiae MAV203 (IMAP1) / AH109 (IMAP2)

HCV proteins = target: T2, HCV proteins (Hepatitis C virus genotype 1b, UniProt Q9WMX2); assay: Validation by Y2H pairwise matrices; assay type: binding;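 note: yeast two-hybrid pairwise tests of interactions first found in Y2H screens of HCV bait proteins against human cDNA libraries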
T2 construct: expressed in transfected cells

[3] = validation of interaction with HCV protein NS3
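Throughout, for IMAP Y2H IMAP1 (number of IST): yeast two-hybrid screens using HCV genotype 1b proteins fused to Gal4-DB as baits against prey cDNA libraries from human spleen and foetal brain, IMAP1 via transformation and IMAP2 via mating.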
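Throughout, for IMAP Y2H IMAP2 (number of IST): yeast two-hybrid screens using HCV genotype 1b proteins fused to Gal4-DB as baits against prey cDNA libraries from human spleen and foetal brain, IMAP1 via transformation and IMAP2 via mating.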
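Throughout, for Interaction with viral protein: yeast two-hybrid screens using HCV genotype 1b proteins fused to Gal4-DB as baits against prey cDNA libraries from human spleen and foetal brain, IMAP1 via transformation and IMAP2 via mating.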

Molecule	Interaction with viral protein [1]	IMAP Y2H IMAP1 (number of IST) ([2]; HCV protein NS3 as bait)	Y2H matrices (HCV proteins; [3])	IMAP Y2H IMAP2 (number of IST) ([2]; HCV protein NS3 as bait)	IMAP Y2H IMAP1 (number of IST) ([2]; HCV protein NS5A as bait)	IMAP Y2H IMAP2 (number of IST) ([2]; HCV protein NS5A as bait)	Y2H matrices (HCV proteins; interaction with HCV protein NS5A)
B1	NS3	1	+	–	–	–	–
B2	NS3	1	+	–	–	–	–
B3	NS3	3	+	–	–	–	–
B4	NS3	1	+	–	–	–	–
B5	NS3	2	+	–	–	–	–
B6	NS3 and NS5A	–	–	1	1	31	+
